Data taken from patent US20150258217A1, “Methods of Synthesizing and Using Peg-Like Fluorochromes” (THE GENERAL HOSPITAL CORPORATION, priority 2012, published 2015).

Key:
[1] = Blood half-life from serum fluorescence after tail injection; type: in vivo; details: mouse, IV; single decay constant fit
Experimental: Using these procedures and PEG's of different molecular weights, PEG-like NIR fluorochromes of different molecular weights, volumes and pharmacokinetics were synthesized, with results summarized in Table 3B. Blood half-lives were determined by tail injection into mice and measuring serum fluorescence as a function of time. Data (fluorescence versus time) were fit to a single decay constant equation to yield blood half-lives. Human pharmacokinetics will be far slower than that of mice.

[2] = PN and peptide size (volume, diameter) by FPLC gel filtration (Superdex 200, globular protein standards); type: physicochemical; details: for Molecular Volume FPLC: Table 3B, dipeptides; for Volume FPLC (diameter) / Volume FPLC: Table 5; for Volume FPLC (diameter): converted from globular protein equivalent MW; for Volume FPLC: globular protein equivalent molecular weight
Experimental: DOTA-Lys-Cys(IR783)-NH2 is then dissolved in DMSO, with 2 equivalents of an NHS ester of PEG and 6 equivalents of DIPEA. The reaction was at room temperature for 5 days. Product was purified by reverse phase HPLC separation. Product molecular weight was by matrix-assisted laser desorption ionization time-of-flight mass spectrometry (MALDI-TOF MS), with product molecular volume by size exclusion FPLC using globular protein standards (GE Healthcare life science AKTApurifier 10).
The mass spec of low molecular weights (MW) were obtained by MS-ESI Micromass (Waters) and high MW molecules were determined through MALDI-TOF analyses at the Tufts University Core Facility. RP-HPLC (Varian ProStar detector and delivery modules) employed an eluant A (0.1% TFA/water) and eluant B (0.1% TFA and 9.9% water in acetonitrile). Probe size (volume) was determined by FPLC using an ÄKTA Purifier 10 and Superdex™ 200 10/300GL column (GE Healthcare) with a running buffer of 0.05 M sodium phosphate, 0.15 M NaCl (0.1% Tween, pH 7.2) and flow rate of 0.8 ml/min. Standards (GE Healthcare) were Ferritin, Ribonuclease A, Carbonic Anhydrase, and Conalbumin and Blue Dextran 2000. To obtain probe volumes, Mr (apparent molecular weight based on size exclusion retention) was plotted versus Kav. Kav=(Ve−Vo)/(Vt−Vo), Vt=total volume, Ve=elution volume, Vo=void volume.
The column was calibrated with globular protein standards, and globular protein equivalent molecular weights (in kDa) were obtained (Table 5, column 5). These were converted to PN diameters in nm using the relationship: Radius in nm=[…] where M is the molecular weight of a globular protein expressed in daltons (see Erickson, “Size and Shape of Protein Molecules at the Nanometer Level Determined by Sedimentation, Gel Filtration, and Electron Microscopy”, Biological Procedures Online 2009, 11(1): 32-50). PN's diameters ranged from 3.0 to 11.8 nm (see FIG. 23a). Using PEG's of 5 kDa and 30 kDa, selected for their low polydispersity, PN's were synthesized using IR-783, Cy3 and Fluorescein (see FIG. 22a) and their sizes determined (see FIGS. 23a, 23b, 23c). With the 5 kDa PEG and these three fluorochromes (see the magenta chromatograms in FIGS. 22a, 23b and 23c) PN diameters were 4.3 nm. With the 30 kDa PEG and these three fluorochromes (blue chromatograms, 23a, 23b, 23c), PN diameters were now 10.0 nm. For reference, the diameter of a 67 kDa albumin determined by this method was 5.4 nm.

[3] = system: HT-29, a human colon carcinoma cell line; test: PN and peptide binding to cells (non-specific binding, FACS); type: cell-based; details: HT-29 cells, 30 min at 37° C., FACS
Experimental: HT-29, a human colon carcinoma cell line, was from the American Tissue Culture Collection and maintained according to their instructions. Cells were seeded on 24-well plates at 5×10^5 cells/well in culture medium (RPMI 1640 with 10% FBS) the day before the assay. The day of assay, medium was removed, wells rinsed twice with DPBS (+Ca, +Mg), and 100 μl of 2% FBS/DPBS (+Ca, +Mg) added. 100 μL of Nanoprobes (2 μM) in DPBS (+Ca, +Mg) was added to cells and incubated for 30 min at 37° C. (Probe concentrations were determined spectrophotometrically (783 nm, extinction coefficient of 314 471 cm^−1 M^−1 for IR-783; 497 nm, extinction coefficient of 68 000 cm^−1 M^−1 for Fluorescein; 545 nm, extinction coefficient of 150 000 cm^−1 M^−1 for Cy3). Cells were detached by Trypsin/EDTA and assayed for fluorescence by FACS (BD 7 laser LSR2 for nanoprobes with IR-783; BD 3 laser LSR2 for nanoprobes with Fluorescein or Cy3).

[4] = Quantum yield determination; type: physicochemical; details: for Quantum Yield: Table 3B, IR-783 dipeptides; for Quant. Yield: Table 5, in PBS
Experimental: Quantum yields were determined as described in Demas et al., “Measurement of photoluminescence quantum yields. Review”, Journal of Physical Chemistry 75, 991-1024 (1971), and Shao et al., “Facile Synthesis of Monofunctional Pentamethine Carbocyanine Fluorophores. Dyes and pigments: an international journal 90, 119-122 (2011). For IR-783 a reference quantum yield of 0.043 was used (see Li et al., “Synthesis and characterization of glucosamine-bound near-infrared probes for optical imaging”, Organic letters 8, 3623-3626, 2006); for fluorescein a reference quantum yield was […] (see Sjoback et al., “Absorption and florescence properties of fluorescein”, Spectrohimica Acta Part A 51, L7-L21, 1995). For Cy3 a reference quantum yield of 0.31 was used (Luminprobe Inc). For PN(783)'s, excitation was at 730 nm and emission spectra were recorded from 765 nm to 870 nm in PBS and maximum emission used. For PN(545)'s, excitation was at 515 nm and emission spectra were recorded from 538 nm to 700 nm in PBS and maximum emission used. For PN(497)'s, excitation was at 450 nm and emission spectra were recorded from 475 nm to 620 nm in PBS and maximum emission used. Absorbance of each probe was adjusted less than 0.1. Measurements were made in triplicate and are expressed as mean±SD.

[5] = Circulating form of PN's (FPLC of serum after IV injection); type: in vivo, mouse; details: nude mice, 20 nmoles
Experimental: 20 nmoles of PN(783)4.3, PN(783)6.1, or PN(783)10.0 was injected (IV, tail vein) into nude mice (female; 25-30 g; 6-8 weeks old; nu/nu). At the indicated time, 50 μl of blood was collected with microhematocrit capillary tube (Fisher Scientific) from the tail, and transferred to Eppendorf microcentrifuge tube with anticoagulant (EDTA) coating (Fisher Scientific). Tubes were centrifuged (5000 rpm for 5 minutes), and the supernatant was injected to the FPLC, a ÄKTA Purifier 10 with Superdex™ 200 10/300GL column.

[6] = mouse, in vivo
Experimental: At two hours post injection, agent is in the blood and interstitium. By 24 hours post injection, tumors are becoming apparent as agent is being cleared. At 48 hours, labeling is highly tumor selective. […] By surface fluorescence, as with SPECT, labeling is highly tumor selective at 48 hours. Biodistribution as organ radioactivity concentrations FIG. 26(c) and total organ radioactivity FIG. 26(d) were obtained by dissection and ^111In counting at 24 hours and 48 hours post injection. Even at 48 hours post injection some 7.5% of injected dose is in the blood, with less than 5% in liver, even though the diameter of PN(783)10.0 exceeds that of albumin (6.7 nm). Data are means and standard deviations. […] By 72 hours, some 17% of injected dose was retained, approximately half of which was still in the blood based on FIG. 26d.

HT-29 tumor = type: in vivo, mouse
From the text: A Kodak FX multispectral imaging system was used (Carestream Molecular Imaging, Rochester, N.Y.). Excitation at multiple wavelengths (620, 650, 690, 710, 720, 730, 750 and 760 nm) with the emission at 830 nm was setup for IR-783 spectrum; Excitation at multiple wavelengths (420, 440, 460, 480, 510, 520, 530, and 540 nm) with the emission at 600 nm was setup for Cy3 spectrum; Excitation at multiple wavelengths (450, 470, 510, 520, 530, 540, 550, 570, and 590 nm) with the emission at 700 nm was setup for mCherry; with manufacturer's software to separate (unmix) the IR-783 spectrum, Cy3 spectrum, or mCherry spectrum from skin autofluorescence and chlorophyll fluorescence from food. X-ray images were taken after fluorescence images. Animals were anesthetized with 2% isoflurane with O2 flow (2 I/min) during imaging.
Female nude mice (25-30 g; 6-8 weeks old; nu/nu) were anesthetized with 2% isoflurane/O2. HT-29 or mCherry-HT-29 cells were detached, pelleted and 200 μl of cell suspension containing 10^6 cells in Matrigel (BD Bioscience) was injected subcutaneously into right and left shoulders. Tumors were allowed to grow 5-7 days before experiments.
The imaging was performed by Triumph II multimodality imaging system (Gamma Medica Ideas, LLC) comprising XSPECT with four CZT (Cadmium Zink Telluride) detectors and X-O CT with CMOS detector. SPECT data of the ^111In-labeled compound was acquired for 60 minutes using 5-pinhole collimators and processed with 3D-OSEM algorithm using 4 subsets and 5 iterations. 3-dimensional CT data was processed with modified Feldkamp software. […] Animals were under isoflurane anesthesia (1.5%) with O2 flow (1.5 l/min) and kept warm during the imaging with a heated animal bed.
150 μl of ^111In-labeled PN(783)10 (400 μCi, ˜2 nmole) were injected to tumor-bearing animals by tail vein (IV). 24 hours or 48 hours later, animals were sacrificed, and tumors, blood, liver, spleen, stomach, kidneys, small intestine, lung, heart, tail, fat, and muscle, were collected. Radioactivity was measured with Perkin Elmer, Wizard2 2480 gamma counter.

Substance | Serum half-life [1] [h] | Molecular Volume FPLC [2] [kDa] | Volume FPLC (diameter) [2] [nm] | Volume FPLC [2] [kDa] | Cell NSB (percent of cells with fluorescence higher than unstained cell) [3] [%] | Quantum Yield [4] | Quant. Yield [4] | circulating form after injection (FPLC elution vs pre-injection sample) [5] | Whole body radioactivity half-life [6] [h] | Whole body radioactivity, % of injected dose [6] [%] | ^111In-PN(783)10 elimination half-life [6] [h] | tumor concentration (HT-29 tumor; HT29 tumor, 48 hours post injection, IV) [% ID/gm] | injected dose in the kidney (HT-29 tumor; mouse, in vivo) [%] | injected dose in the liver (HT-29 tumor; mouse, in vivo) [%]
(DOTA)Lys(PEG2K)-Cys(IR-783) [PN(783)3.0] | 0.0233 | 11.2 | 3.0 | 11.2 | 50 | 0.15 | 0.13 |  |  |  |  |  |  | 
(DOTA)Lys(PEG10K)-Cys(IR-783) [PN(783)6.1] |  | 100.7 | 6.1 | 100.7 | 14 | 0.17 | 0.16 | identical for pre-injection samples and for sera from injected mice |  |  |  |  |  | 
(DOTA)Lys(PEG20K)-Cys(IR-783) [PN(783)8.4] | 0.293 | 262.5 | 8.4 | 262.5 | 14 | 0.17 | 0.16 |  |  |  |  |  |  | 
(^111In-DOTA)Lys(PEG30 kDa)-Cys(IR-783) [^111In-PN(783)10.0] |  |  |  |  |  |  |  |  | 7.8 | 13.75±0.74 | 7.8 | 7.28±0.93 | 0.44±0.02 | 4.71±0.38
